According to US20220363758A1 (SORRENTO THERAPEUTICS, published 2022):
“And” between values parts separate entries of the source, which are not always exact repeats. Identical values can stand only once.

Assays:
[1] = target: T1, Recombinant human CD38-his tag (human, UniProt P28907 43-300); assay: SPR (Biacore T200), 1:1 binding model; antigen not named on the sheet, taken as recombinant human CD38-his from Example 9
T1 construct: also called recombinant CD38 antigen; CD38 antigen; not shown: his tag

[2] = target: T1, Recombinant human CD38-his tag; assay: SPR (Biacore T200), 1:1 binding model; antigen not named on the sheet, taken as recombinant human CD38-his from Example 9; row printed 'BZ1 Pool2 PA', assigned to BZ1S through legends paragraph 161 and paragraph 163
Experimental: Kinetic interactions between bispecific antibodies and CD38 antigen were measured at 25° C. using Biacore T200 surface plasmon resonance (GE Healthcare). Anti-human fragment crystallizable (Fc) antibody (Human Antibody Capture Kit) was immobilized on a Series S CM5 sensor chip to approximately 10000 RU using standard N-Hydroxysuccinimide/1-ethyl-3-(-3-dimethylaminopropyl) carbodiimide hydrochloride (NHS/EDC) coupling methodology. Antibodies (bispecific or mAb, approximately 2 μg/mL) were captured for 60 seconds at a flow rate 10 μL/min. Recombinant human CD38-his tag was serially diluted in running buffer (1×HBS-EP+). All measurements were conducted with a flow rate of 30 μL/min. Surfaces were regenerated with 3M MgCl₂ for 60 s. A 1:1 (Langmuir) binding model was used to fit the data.
Biacore binding kinetics of the CD38×CD3 bispecific antibodies towards each individual antigen as the first and sole binding event were obtained for the target combination: CD38/CD3. The bispecific antibody was immobilized onto a biosensor surface via amine coupled anti human Fc antibodies on a CM5 sensor chip (GE Healthcare) according to the manufacturer's recommendation. […] Some kinetics analysis of the parental mAb (anti-CD38) was performed with 200 seconds association phase and 300 seconds dissociation phase.

Kd [1]	koff [1]	kon [1]	Kd [2]	koff [2]	kon [2]	Binder
1.08 nM and 0.96 nM	0.00213 s⁻¹ and 0.00205 s⁻¹	1.97e+06 M⁻¹ s⁻¹	–	–	–	BZ1 heterodimeric antibody (bispecific antibody, human IgG1, lambda, L234A L235A, Isotype IgG1/LALA, knob-in-hole; also called BZ1 bispecific antibody) QVQLVQSGAEVKKPGASVKVSCKASGYTFISYTMHWVRQAPGQGLEWIGYINPRSGYTHYNQKLKDRATLTADKSASTAYMELSSLRSEDTAVYYCARSAYYDYDGFAYWGQGTLVTVSSGGGGSGGGGSGGGGSGGGGSDIQMTQSPSSLSASVGDRVTITCSASSSVSYMNWYQQKPGKAPKRLIYDTSKLASGVPSRFSGSGSGTDFTLTISSLQPEDFATYYCQQWSSNPPTFGGGTKVEIKGGGGSDKTHTCPPCPAPEAAGGPSVFLFPPKPKDTLMISRTPEVTCVVVDVSHEDPEVKFNWYVDGVEVHNAKTKPREEQYNSTYRVVSVLTVLHQDWLNGKEYKCKVSNKALPAPIEKTISKAKGQPREPQVYTLPPSREEMTKNQVSLSCAVKGFYPSDIAVEWESNGQPENNYKTTPPVLDSDGSFFLVSKLTVDKSRWQQGNVFSCSVMHEALHNHYTQKSLSLSPGK heavy: QVQLVESGGGLVKPGGSLRLSCAASGFTFSDDYMSWIRQAPGKGLEWVASVSNGRPTTYYADSVRGRFTISRDNAKNSLYLQMNSLRAEDTAVYYCAREGWSGEFTDWGQGTLVTVSSASTKGPSVFPLAPSSKSTSGGTAALGCLVKDYFPEPVTVSWNSGALTSGVHTFPAVLQSSGLYSLSSVVTVPSSSLGTQTYICNVNHKPSNTKVDKRVEPKSCDKTHTCPPCPAPEAAGGPSVFLFPPKPKDTLMISRTPEVTCVVVDVSHEDPEVKFNWYVDGVEVHNAKTKPREEQYNSTYRVVSVLTVLHQDWLNGKEYKCKVSNKALPAPIEKTISKAKGQPREPQVYTLPPSREEMTKNQVSLWCLVKGFYPSDIAVEWESNGQPENNYKTTPPVLDSDGSFFLYSKLTVDKSRWQQGNVFSCSVMHEALHNHYTQKSLSLSPGK light: not shown
–	–	–	0.909 nM	0.00194 s⁻¹	2.14e+06 M⁻¹ s⁻¹	BZ1S (bispecific antibody, human IgG1, lambda, L234A L235A, also called BZ1S heterodimeric antibody; BZ1S bispecific antibody) first polypeptide (anti-CD3 scFv-Fc fusion): QVQLVQSGAEVKKPGASVKVSCKASGYTFISYTMHWVRQAPGQGLEWIGYINPRSGYTHYNQKLKDRATLTADKSASTAYMELSSLRSEDTAVYYCARSAYYDYDGFAYWGQGTLVTVSSGGGGSGGGGSGGGGSGGGGSDIQMTQSPSSLSASVGDRVTITCSASSSVSYMNWYQQKPGKAPKRLIYDTSKLASGVPSRFSGSGSGTDFTLTISSLQPEDFATYYCQQWSSNPPTFGGGTKVEIKGGGGSDKTHTCPPCPAPEAAGGPSVFLFPPKPKDTLMISRTPEVTCVVVDVSHEDPEVKFNWYVDGVEVHNAKTKPREEQYNSTYRVVSVLTVLHQDWLNGKEYKCKVSNKALPAPIEKTISKAKGQPREPQVYTLPPSREEMTKNQVSLSCAVKGFYPSDIAVEWESNGQPENNYKTTPPVLDSDGSFFLVSKLTVDKSRWQQGNVFSCSVMHEALHNHYTQKSLSLSPGK second polypeptide (anti-CD38 heavy chain): QVQLVESGGGLVKPGGSLRLSCAASGFTFSDDYMSWIRQAPGKGLEWVASVSSGRPTTYYADSVRGRFTISRDNAKNSLYLQMNSLRAEDTAVYYCAREGWSGEFTDWGQGTLVTVSSASTKGPSVFPLAPSSKSTSGGTAALGCLVKDYFPEPVTVSWNSGALTSGVHTFPAVLQSSGLYSLSSVVTVPSSSLGTQTYICNVNHKPSNTKVDKRVEPKSCDKTHTCPPCPAPEAAGGPSVFLFPPKPKDTLMISRTPEVTCVVVDVSHEDPEVKFNWYVDGVEVHNAKTKPREEQYNSTYRVVSVLTVLHQDWLNGKEYKCKVSNKALPAPIEKTISKAKGQPREPQVYTLPPSREEMTKNQVSLWCLVKGFYPSDIAVEWESNGQPENNYKTTPPVLDSDGSFFLYSKLTVDKSRWQQGNVFSCSVMHEALHNHYTQKSLSLSPGK third polypeptide (anti-CD38 light chain): not shown
